We go through one substance from publication PMC10442075.

Test [1] has as its target catalytic subunit of mouse PKA (mouse) (UniProt P05132).
Test [2] shares this target. This is another data set of the same source.

Sequence of unphosphorylated GSK3β (Glycogen Synthase Kinase 3β) (P49841 whole entry): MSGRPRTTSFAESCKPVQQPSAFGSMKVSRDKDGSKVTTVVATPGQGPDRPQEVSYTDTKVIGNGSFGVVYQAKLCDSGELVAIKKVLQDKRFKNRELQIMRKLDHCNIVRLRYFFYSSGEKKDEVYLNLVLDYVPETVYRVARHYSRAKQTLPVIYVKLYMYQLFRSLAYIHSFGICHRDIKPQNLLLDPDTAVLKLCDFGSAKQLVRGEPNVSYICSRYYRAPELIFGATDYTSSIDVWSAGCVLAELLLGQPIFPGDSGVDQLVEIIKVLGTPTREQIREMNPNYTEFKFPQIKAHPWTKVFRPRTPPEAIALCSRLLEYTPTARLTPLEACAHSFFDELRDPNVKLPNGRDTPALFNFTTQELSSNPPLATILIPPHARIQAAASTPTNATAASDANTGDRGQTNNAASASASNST

“unphosphorylated GSK3β (Glycogen Synthase Kinase 3β) (from UniProt P49841 1-420) (enzyme)”: the fold increase in KM for PKA phosphorylation of GSK3β at Ser9 (20 nM PKA) on addition of 500 nM full-length Axin in test [1] was 4 fold. The fold increase in KM for PKA phosphorylation of GSK3β at Ser9 on addition of the Axin (381-407) peptide in test [2] was 7 fold.
